The values below come from paper PMC4329983 (Molecular imaging and biology : MIB : the official …, 2013).

For data set [1] the following is noted: cited from earlier work.
The nature of data set [2]: Biodistribution in AR42J tumor-bearing mice. The data set is classed as in vivo. The conditions noted are these: mouse, in vivo.
Data set [3] deals with AR42J tumor bearing athymic nude mice. Nature of the data set: Biodistribution in AR42J tumor-bearing mice. The class given is in vivo.
Data set [4] relates to AR42J rat pancreatic cancer cells. The data set can be described thus: Internalization studies of 68Ga-labeled conjugates in AR42J cells. The class given is cell-based. The conditions noted are these: 37 °C, 10-120 min, ~0.7 nM; reference 68Ga-DOTATOC; Fig. 2.
For data set [5] the following is noted: cited from earlier work. The source holds these as a separate data set.

In the case of `O=C([O-])CN1CCN(CC(=O)[O-])CCN(CC(=O)O)CCN(CC(=O)[O-])CC1.[Ga+3]` [DOTA-Ga(III)], in data set [1], the “log K (thermodynamic stability of the Ga(III) complex)” value is given as 21.3.

For the compound `O=C([O-])CN1CCN(CC(=O)[O-])CCN(CC(=O)[O-])CC1.[Ga+3]` [NOTA-Ga(III)], the “log K (thermodynamic stability of the Ga(III) complex)” value in data set [1] is 31.0.

In data set [2] (iv, kidney uptake), `C[C@@H](O)[C@@H]1NC(=O)[C@H](CCCCN)NC(=O)[C@@H](Cc2c[nH]c3ccccc23)NC(=O)[C@H](Cc2ccc(O)cc2)NC(=O)[C@@H](NC(=O)[C@@H](Cc2ccccc2)NC(=O)CCC(C(=O)O)N2CCN(CC(=O)O)CCN(CC(=O)O)CC2)CSSC[C@@H](C(=O)N[C@H](CO)[C@@H](C)O)NC1=O` (stereo partly drawn) [^68Ga-1, metal not drawn] gave a tissue uptake at 0.5 h of 22.8 ± 2.22 %ID/g and a tissue uptake at 2 h of 9.79 ± 1.9 %ID/g. Moreover, the tissue uptake at 0.5 h in data set [2] (iv, liver uptake) came out at 0.81 ± 0.09 %ID/g. Also, in data set [2] (tumor uptake), the tissue uptake at 1 h worked out at 22.3 ± 3.22 %ID/g and the tissue uptake at 2 h worked out at 12.8 ± 4.65 %ID/g. Further, in data set [3] (mouse, in vivo), the tumor retention rate is 55%, the tumor/kidney ratio result is recorded as “significantly higher” and the tumor/liver ratio result is reported as “significantly higher”.

Regarding `C[C@@H](O)[C@@H]1NC(=O)[C@H](CCCCN)NC(=O)[C@@H](Cc2c[nH]c3ccccc23)NC(=O)[C@H](Cc2ccc(O)cc2)NC(=O)[C@@H](NC(=O)[C@@H](Cc2ccccc2)NC(=O)CCC(C(=O)O)N2CCN(CC(=O)O)CCN(C(CCC(=O)O)C(=O)O)CC2)CSSC[C@@H](C(=O)N[C@H](CO)[C@@H](C)O)NC1=O` (stereo partly drawn) [^68Ga-2, metal not drawn], the “Internalization in AR42J cells (time course)” value in data set [4] is given as “significantly decreased”. In data set [2] (iv, kidney uptake), this compound returned a tissue uptake at 0.5 h of 18.2 ± 1.84 %ID/g and a tissue uptake at 2 h of 8.22 ± 2.29 %ID/g. In data set [2] (iv, liver uptake), this compound displayed a tissue uptake at 0.5 h of 1.38 ± 0.11 %ID/g. In data set [2] (tumor uptake), this compound had a tissue uptake at 1 h of 7.87 ± 0.41 %ID/g and a tissue uptake at 2 h of 1.78 ± 0.15 %ID/g. This compound also came in with a tumor retention rate in data set [3] (mouse, in vivo) of 24%.

For `C[C@@H](O)[C@@H]1NC(=O)[C@H](CCCCN)NC(=O)[C@@H](Cc2c[nH]c3ccccc23)NC(=O)[C@H](Cc2ccc(O)cc2)NC(=O)[C@@H](NC(=O)[C@@H](Cc2ccccc2)NC(=O)CCC(C(=O)O)N2CCN(C(CCC(=O)O)C(=O)O)CCN(C(CCC(=O)O)C(=O)O)CC2)CSSC[C@@H](C(=O)N[C@H](CO)[C@@H](C)O)NC1=O` (stereo partly drawn) [^68Ga-3, metal not drawn], the “Internalization in AR42J cells (time course)” value in data set [4] is on record as “negligible”. Further, the tissue uptake at 1 h in data set [2] (5 µCi, tumor uptake, 1 h p.i., AR42J xenograft, n=4) turned out to be 2.95 ± 0.62 %ID/g. The tissue uptake at 2 h in data set [2] (5 µCi, tumor uptake, 2 h p.i., AR42J xenograft, n=4) is 0.83 ± 0.1 %ID/g; in data set [2] (iv, 5 µCi, kidney uptake, 2 h p.i., n=4) it was 5.24 ± 1.03 %ID/g. The tissue uptake at 0.5 h in data set [2] (iv, 5 µCi, kidney uptake, 30 min p.i., n=4) was determined as 13.8 ± 2.22 %ID/g; in data set [2] (iv, 5 µCi, liver uptake, 30 min p.i., n=4), 0.51 ± 0.05 %ID/g. Besides, in data set [3] (1 h p.i., vs 68Ga-DOTATOC, 68Ga-NO2ATOC and 68Ga-2 (P<0.01), Fig. 5), the tumor/stomach ratio entry was “significantly higher”. For the same compound, in data set [3] (2 h p.i.), the tumor retention rate was found to be 19%. Moreover, the “retention of the initial kidney uptake” value in data set [3] (2 h p.i. relative to 30 min p.i.) is “less than 52%”.

As to `C[C@@H](O)[C@@H]1NC(=O)[C@H](CCCCN)NC(=O)[C@@H](Cc2c[nH]c3ccccc23)NC(=O)[C@H](Cc2ccc(O)cc2)NC(=O)[C@@H](NC(=O)[C@@H](Cc2ccccc2)NC(=O)CN2CCN(CC(=O)O)CCN(CC(=O)O)CCN(CC(=O)O)CC2)CSSC[C@@H](C(=O)N[C@H](CO)[C@@H](C)O)NC1=O` [^68Ga-DOTATOC, metal not drawn, reference compound], in data set [2] (iv, kidney uptake), the tissue uptake at 0.5 h amounted to 11.3 ± 2.07 %ID/g and the tissue uptake at 2 h was found to be 7.33 ± 1.28 %ID/g. Moreover, in data set [2] (iv, liver uptake), the tissue uptake at 0.5 h worked out at 0.74 ± 0.18 %ID/g and the tissue uptake at 2 h is 4.37 ± 0.2 %ID/g. The compound also gave a tissue uptake at 1 h in data set [2] (tumor uptake) of 13.5 ± 6.28 %ID/g.

On to “SST-14: physiological form of somatostatin, natural SSTR ligand”, for which the biological half-life in data set [5] is 2–4 min.

Take “SST-28: physiological form of somatostatin, natural SSTR ligand”: the biological half-life in data set [5] is recorded as 2–4 min.
